From patent publication US20250304643A1 (BAINAN BIOTECH, published 2025)
*1 amine or outer side, *2 acyl side, *3 side chain or, on linkers, in order; H or OH if unused. Where no end group is shown, it is not given here. Side-chain parts run from the residue outwards. [ ]: non-standard residue; d: D form. The star is where a group is joined. γGlu = O=C(O)[C@H](CCC(=O)[*:2])N[*:1]; Palmitoyl = CCCCCCCCCCCCCCCC(=O)*; Decanoyl = CCCCCCCCCC(=O)*; Aib = CC(C)(N)C(=O)O

T1: human GIPR (glucose-dependent insulinotropic polypeptide receptor) (human, UniProt P48546 22-466)
T1 sequence (looked up): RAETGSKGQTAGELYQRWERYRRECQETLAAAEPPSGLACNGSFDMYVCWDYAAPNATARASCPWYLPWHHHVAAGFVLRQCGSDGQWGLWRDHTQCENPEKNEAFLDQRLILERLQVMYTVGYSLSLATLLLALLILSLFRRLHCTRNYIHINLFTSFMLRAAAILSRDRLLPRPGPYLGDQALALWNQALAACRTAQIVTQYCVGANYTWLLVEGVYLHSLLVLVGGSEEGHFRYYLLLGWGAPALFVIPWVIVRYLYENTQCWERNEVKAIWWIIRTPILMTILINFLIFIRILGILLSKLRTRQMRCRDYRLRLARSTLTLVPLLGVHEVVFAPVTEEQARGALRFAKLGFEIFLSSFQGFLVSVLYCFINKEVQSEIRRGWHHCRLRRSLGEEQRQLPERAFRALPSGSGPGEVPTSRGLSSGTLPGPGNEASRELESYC

T2: human GLP-2R (glucagon-like peptide-2 receptor) (human, UniProt O95838 1-553)
T2 sequence (looked up): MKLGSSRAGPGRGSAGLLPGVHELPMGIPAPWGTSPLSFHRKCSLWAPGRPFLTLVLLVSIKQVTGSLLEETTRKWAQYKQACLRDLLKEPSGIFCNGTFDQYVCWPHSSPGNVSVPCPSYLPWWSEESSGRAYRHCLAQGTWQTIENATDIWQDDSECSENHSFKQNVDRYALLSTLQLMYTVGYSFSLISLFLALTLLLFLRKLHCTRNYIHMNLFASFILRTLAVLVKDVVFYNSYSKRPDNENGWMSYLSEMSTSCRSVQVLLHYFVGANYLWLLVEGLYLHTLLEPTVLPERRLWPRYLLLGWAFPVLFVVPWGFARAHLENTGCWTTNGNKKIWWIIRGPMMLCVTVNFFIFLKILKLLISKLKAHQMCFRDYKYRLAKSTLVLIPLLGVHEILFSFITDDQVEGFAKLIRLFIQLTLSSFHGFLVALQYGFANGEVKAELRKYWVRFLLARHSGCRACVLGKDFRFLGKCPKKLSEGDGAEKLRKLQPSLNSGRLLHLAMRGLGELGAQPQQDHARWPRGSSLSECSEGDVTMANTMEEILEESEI

B1: Compound no. 58 (peptide)
peptide: HADGTFISDYSTILDKLAARDFINWLIQTKITK(C16 fatty acid)
B2: Compound no. 49 (peptide)
peptide: Palmitoyl-HADGTFISDYSTILDNLAARDFINWLIQTKITKAEWKHAITQ
B3: Compound no. 48 (peptide)
peptide: Palmitoyl-HADGTFISDYSTILDELAARDFINWLIQTKITKNDWKHNITQ
B4: Compound no. 57 (peptide)
peptide: HADGTFISDYSTILDKLAARDFINWLIQTK(C16 fatty acid)ITK
B5: Compound no. 54 (peptide)
peptide: H[Aib]DGTFISDYK([γGlu-Decanoyl])T[Aib]LDNLAARDFINWLIQTKITGNDWKHNITQ-OH
B6: Compound no. 10 (peptide)
peptide: H[Aib]DGTFK([γGlu-Palmitoyl])SDYSTILDNLAARDFINWLIQTKITK-OH
modifications: N-terminus assumed
SMILES: CCCCCCCCCCCCCCCC(=O)N[C@@H](CCC(=O)NCCCC[C@H](NC(=O)[C@H](Cc1ccccc1)NC(=O)[C@@H](NC(=O)CNC(=O)[C@H](CC(=O)O)NC(=O)C(C)(C)NC(=O)[C@@H](N)Cc1c[nH]cn1)[C@@H](C)O)C(=O)N[C@@H](CO)C(=O)N[C@@H](CC(=O)O)C(=O)N[C@@H](Cc1ccc(O)cc1)C(=O)N[C@@H](CO)C(=O)N[C@H](C(=O)N[C@H](C(=O)N[C@@H](CC(C)C)C(=O)N[C@@H](CC(=O)O)C(=O)N[C@@H](CC(N)=O)C(=O)N[C@@H](CC(C)C)C(=O)N[C@@H](C)C(=O)N[C@@H](C)C(=O)N[C@@H](CCCNC(=N)N)C(=O)N[C@@H](CC(=O)O)C(=O)N[C@@H](Cc1ccccc1)C(=O)N[C@H](C(=O)N[C@@H](CC(N)=O)C(=O)N[C@@H](Cc1c[nH]c2ccccc12)C(=O)N[C@@H](CC(C)C)C(=O)N[C@H](C(=O)N[C@@H](CCC(N)=O)C(=O)N[C@H](C(=O)N[C@@H](CCCCN)C(=O)N[C@H](C(=O)N[C@H](C(=O)N[C@@H](CCCCN)C(=O)O)[C@@H](C)O)[C@@H](C)CC)[C@@H](C)O)[C@@H](C)CC)[C@@H](C)CC)[C@@H](C)CC)[C@@H](C)O)C(=O)O
B7: Compound no. 8 (peptide)
peptide: Palmitoyl-H[Aib]DGTFISDYSTILDNLAARDFIEWLIQTKIT-OH
SMILES: CCCCCCCCCCCCCCCC(=O)N[C@@H](Cc1c[nH]cn1)C(=O)NC(C)(C)C(=O)N[C@@H](CC(=O)O)C(=O)NCC(=O)N[C@H](C(=O)N[C@@H](Cc1ccccc1)C(=O)N[C@H](C(=O)N[C@@H](CO)C(=O)N[C@@H](CC(=O)O)C(=O)N[C@@H](Cc1ccc(O)cc1)C(=O)N[C@@H](CO)C(=O)N[C@H](C(=O)N[C@H](C(=O)N[C@@H](CC(C)C)C(=O)N[C@@H](CC(=O)O)C(=O)N[C@@H](CC(N)=O)C(=O)N[C@@H](CC(C)C)C(=O)N[C@@H](C)C(=O)N[C@@H](C)C(=O)N[C@@H](CCCNC(=N)N)C(=O)N[C@@H](CC(=O)O)C(=O)N[C@@H](Cc1ccccc1)C(=O)N[C@H](C(=O)N[C@@H](CCC(=O)O)C(=O)N[C@@H](Cc1c[nH]c2ccccc12)C(=O)N[C@@H](CC(C)C)C(=O)N[C@H](C(=O)N[C@@H](CCC(N)=O)C(=O)N[C@H](C(=O)N[C@@H](CCCCN)C(=O)N[C@H](C(=O)N[C@H](C(=O)O)[C@@H](C)O)[C@@H](C)CC)[C@@H](C)O)[C@@H](C)CC)[C@@H](C)CC)[C@@H](C)CC)[C@@H](C)O)[C@@H](C)CC)[C@@H](C)O
B8: Compound no. 7 (peptide)
peptide: Palmitoyl-H[Aib]DGTFISDYSTILDNLAARDFIEWLIQTKITK-OH
SMILES: CCCCCCCCCCCCCCCC(=O)N[C@@H](Cc1c[nH]cn1)C(=O)NC(C)(C)C(=O)N[C@@H](CC(=O)O)C(=O)NCC(=O)N[C@H](C(=O)N[C@@H](Cc1ccccc1)C(=O)N[C@H](C(=O)N[C@@H](CO)C(=O)N[C@@H](CC(=O)O)C(=O)N[C@@H](Cc1ccc(O)cc1)C(=O)N[C@@H](CO)C(=O)N[C@H](C(=O)N[C@H](C(=O)N[C@@H](CC(C)C)C(=O)N[C@@H](CC(=O)O)C(=O)N[C@@H](CC(N)=O)C(=O)N[C@@H](CC(C)C)C(=O)N[C@@H](C)C(=O)N[C@@H](C)C(=O)N[C@@H](CCCNC(=N)N)C(=O)N[C@@H](CC(=O)O)C(=O)N[C@@H](Cc1ccccc1)C(=O)N[C@H](C(=O)N[C@@H](CCC(=O)O)C(=O)N[C@@H](Cc1c[nH]c2ccccc12)C(=O)N[C@@H](CC(C)C)C(=O)N[C@H](C(=O)N[C@@H](CCC(N)=O)C(=O)N[C@H](C(=O)N[C@@H](CCCCN)C(=O)N[C@H](C(=O)N[C@H](C(=O)N[C@@H](CCCCN)C(=O)O)[C@@H](C)O)[C@@H](C)CC)[C@@H](C)O)[C@@H](C)CC)[C@@H](C)CC)[C@@H](C)CC)[C@@H](C)O)[C@@H](C)CC)[C@@H](C)O
B9: Compound no. 31 (peptide)
peptide: H[Aib]DGTFISDYK([γGlu-Decanoyl])TILDKLAARDFIEWLIATKITK-OH
modifications: N-terminus assumed
SMILES: CCCCCCCCCC(=O)N[C@@H](CCC(=O)NCCCC[C@H](NC(=O)[C@H](Cc1ccc(O)cc1)NC(=O)[C@H](CC(=O)O)NC(=O)[C@H](CO)NC(=O)[C@@H](NC(=O)[C@H](Cc1ccccc1)NC(=O)[C@@H](NC(=O)CNC(=O)[C@H](CC(=O)O)NC(=O)C(C)(C)NC(=O)[C@@H](N)Cc1c[nH]cn1)[C@@H](C)O)[C@@H](C)CC)C(=O)N[C@H](C(=O)N[C@H](C(=O)N[C@@H](CC(C)C)C(=O)N[C@@H](CC(=O)O)C(=O)N[C@@H](CCCCN)C(=O)N[C@@H](CC(C)C)C(=O)N[C@@H](C)C(=O)N[C@@H](C)C(=O)N[C@@H](CCCNC(=N)N)C(=O)N[C@@H](CC(=O)O)C(=O)N[C@@H](Cc1ccccc1)C(=O)N[C@H](C(=O)N[C@@H](CCC(=O)O)C(=O)N[C@@H](Cc1c[nH]c2ccccc12)C(=O)N[C@@H](CC(C)C)C(=O)N[C@H](C(=O)N[C@@H](C)C(=O)N[C@H](C(=O)N[C@@H](CCCCN)C(=O)N[C@H](C(=O)N[C@H](C(=O)N[C@@H](CCCCN)C(=O)O)[C@@H](C)O)[C@@H](C)CC)[C@@H](C)O)[C@@H](C)CC)[C@@H](C)CC)[C@@H](C)CC)[C@@H](C)O)C(=O)O
B10: Compound no. 44 (peptide)
peptide: Decanoyl-H[Aib]DGTFISDYST[Aib]LDNLAARDFINWLIQTKITK-OH
SMILES: CCCCCCCCCC(=O)N[C@@H](Cc1c[nH]cn1)C(=O)NC(C)(C)C(=O)N[C@@H](CC(=O)O)C(=O)NCC(=O)N[C@H](C(=O)N[C@@H](Cc1ccccc1)C(=O)N[C@H](C(=O)N[C@@H](CO)C(=O)N[C@@H](CC(=O)O)C(=O)N[C@@H](Cc1ccc(O)cc1)C(=O)N[C@@H](CO)C(=O)N[C@H](C(=O)NC(C)(C)C(=O)N[C@@H](CC(C)C)C(=O)N[C@@H](CC(=O)O)C(=O)N[C@@H](CC(N)=O)C(=O)N[C@@H](CC(C)C)C(=O)N[C@@H](C)C(=O)N[C@@H](C)C(=O)N[C@@H](CCCNC(=N)N)C(=O)N[C@@H](CC(=O)O)C(=O)N[C@@H](Cc1ccccc1)C(=O)N[C@H](C(=O)N[C@@H](CC(N)=O)C(=O)N[C@@H](Cc1c[nH]c2ccccc12)C(=O)N[C@@H](CC(C)C)C(=O)N[C@H](C(=O)N[C@@H](CCC(N)=O)C(=O)N[C@H](C(=O)N[C@@H](CCCCN)C(=O)N[C@H](C(=O)N[C@H](C(=O)N[C@@H](CCCCN)C(=O)O)[C@@H](C)O)[C@@H](C)CC)[C@@H](C)O)[C@@H](C)CC)[C@@H](C)CC)[C@@H](C)O)[C@@H](C)CC)[C@@H](C)O
B11: Compound no. 11 (peptide)
peptide: HXDGTFISDYKTILDNLAARDFINWLIQTKITK
modifications: Aib at 2; K(γGlu-C16) at 11; C-terminus -OH

Biological target: T1, human GIPR (glucose-dependent …)
Assay: cell-based or functional assay

cAMP assay: EC50 (nM) GIPR [nM]	cAMP assay: Efficacy GIPR [%]	Binder
1.41	74	B1
2.82	105	B2
2.82	112	B3
12.6	97	B4
1.17	86	B5

Biological target: T2, human GLP-2R (glucagon-like peptide-2 …)
Assay: cell-based or functional assay

cAMP assay: EC50 (nM) GLP-2R [nM]	cAMP assay: Efficacy GLP-2R [%]	cAMP assay: logEC50 GLP-2R	Binder
35.5	92	7.5	B2
25.1	69	7.6	B3

Biological target: human GLP-1R (GLP-1 receptor) (human, UniProt P43220 24-463)
Assay: cell-based or functional assay

cAMP assay: EC50 (nM) GLP-1R [nM]	cAMP assay: Efficacy GLP-1R [%]	cAMP assay: logEC50 GLP-1R	Binder
100	10	7	B6
10	19	8	B7
39.8	13	7.4	B8
39.8	6	7.4	B9
100	73	7	B4
39.8	8	7.4	B5
	19		B10
	11		B11
